{"source": "patent US20120190834A1", "proteins": {"B1": {"name": "tissue factor:Factor VIIa complex (sources not stated; Examples 8 and 12) (protein)", "chain 1": "SGTTNTVAAYNLTWKSTNFKTILEWEPKPVNQVYTVQISTKSGDWKSKCFYTTDTECDLTDEIVKDVKQTYLARVFSYPAGNVESTGSAGEPLYENSPEFTPYLETNLGQPTIQSFEQVGTKVNVTVEDERTLVRRNNTFLSLRDVFGKDLIYTLYYWKSSSSGKKTAKTNTNEFLIDVDKGENYCFSVQAVIPSRTVNRKSTDSPVECMGQEKGEFREIFYIIGAVVFVVIILVIILAISLHKCRKAGVGQSWKENSPLNVS", "chain 2": "ANAFLEELRPGSLERECKEEQCSFEEAREIFKDAERTKLFWISYSDGDQCASSPCQNGGSCKDQLQSYICFCLPAFEGRNCETHKDDQLICVNENGGCEQYCSDHTGTKRSCRCHEGYSLLADGVSCTPTVEYPCGKIPILEKRNASKPQGR", "chain 3": "IVGGKVCPKGECPWQVLLLVNGAQLCGGTLINTIWVVSAAHCFDKIKNWRNLIAVLGEHDLSEHDGDEQSRRVAQVIIPSTYVPGTTNHDIALLRLHQPVVLTDHVVPLCLPERTFSERTLAFVRFSLVSGWGQLLDRGATALELMVLNVPRLMTQDCLQQSRKVGDSPNITEYMFCAGYSDGSKDSCKGDSGGPHATHYRGTWYLTGIVSWGQGCATVGHFGVYTRVSQYIEWLQKLMRSEPRPGVLLRAPFP"}, "B2": {"name": "extrinsic Xase complex: re-lipidated recombinant human tissue factor (Innovin) and factor VIIa (Enzyme Research Laboratories) (protein)", "chain 1": "B1 chain 1", "chain 2": "B1 chain 2", "chain 3": "B1 chain 3"}, "B3": {"name": "Factor Xa (source not stated; Example 45) (protein)", "chain 1": "ANSFLEEMKKGHLERECMEETCSYEEAREVFEDSDKTNEFWNKYKDGDQCETSPCQNQGKCKDGLGEYTCTCLEGFEGKNCELFTRKLCSLDNGDCDQFCHEEQNSVVCSCARGYTLADNGKACIPTGPYPCGKQTLER", "chain 2": "IVGGQECKDGECPWQALLINEENEGFCGGTILSEFYILTAAHCLYQAKRFKVRVGDRNTEQEEGGEAVHEVEVVIKHNRFTKETYDFDIAVLRLKTPITFRMNVAPACLPERDWAESTLMTQKTGIVSGFGRTHEKGRQSTRLKMLEVPYVDRNSCKLSSSFIITQNMFCAGYDTKQEDACQGDSGGPHVTRFKDTYFVTGIVSWGEGCARKGKYGIYTKVTAFLKWIDRSMKTRGLPKAKSHAPEVITSSPLK"}, "B4": {"name": "prothrombinase complex: factor Xa (Enzyme Research Laboratories) and factor Va (Haematologic Technologies) on phospholipid membrane (protein)", "chain 1": "B3 chain 1", "chain 2": "B3 chain 2", "chain 3": "AQLRQFYVAAQGISWSYRPEPTNSSLNLSVTSFKKIVYREYEPYFKKEKPQSTISGLLGPTLYAEVGDIIKVHFKNKADKPLSIHPQGIRYSKLSEGASYLDHTFPAEKMDDAVAPGREYTYEWSISEDSGPTHDDPPCLTHIYYSHENLIEDFNSGLIGPLLICKKGTLTEGGTQKTFDKQIVLLFAVFDESKSWSQSSSLMYTVNGYVNGTMPDITVCAHDHISWHLLGMSSGPELFSIHFNGQVLEQNHHKVSAITLVSATSTTANMTVGPEGKWIISSLTPKHLQAGMQAYIDIKNCPKKTRNLKKITREQRRHMKRWEYFIAAEEVIWDYAPVIPANMDKKYRSQHLDNFSNQIGKHYKKVMYTQYEDESFTKHTVNPNMKEDGILGPIIRAQVRDTLKIVFKNMASRPYSIYPHGVTFSPYEDEVNSSFTSGRNNTMIRAVQPGETYTYKWNILEFDEPTENDAQCLTRPYYSDVDIMRDIASGLIGLLLICKSRSLDRRGIQRAADIEQQAVFAVFDENKSWYLEDNINKFCENPDEVKRDDPKFYESNIMSTINGYVPESITTLGFCFDDTVQWHFCSVGTQNEILTIHFTGHSFIYGKRHEDTLTLFPMRGESVTVTMDNVGTWMLTSMNSSPRSKKLRLKFRDVKCIPDDDEDSYEIFEPPESTVMATRKMHDRLEPEDEESDADYDYQNRLAAALGIR", "chain 4": "SNNGNRRNYYIAAEEISWDYSEFVQRETDIEDSDDIPEDTTYKKVVFRKYLDSTFTKRDPRGEYEEHLGILGPIIRAEVDDVIQVRFKNLASRPYSLHAHGLSYEKSSEGKTYEDDSPEWFKEDNAVQPNSSYTYVWHATERSGPESPGSACRAWAYYSAVNPEKDIHSGLIGPLLICQKGILHKDSNMPMDMREFVLLFMTFDEKKSWYYEKKSRSSWRLTSSEMKKSHEFHAINGMIYSLPGLKMYEQEWVRLHLLNIGGSQDIHVVHFHGQTLLENGNKQHQLGVWPLLPGSFKTLEMKASKPGWWLLNTEVGENQRAGMQTPFLIMDRDCRMPMGLSTGIISDSQIKASEFLGYWEPRLARLNNGGSYNAWSVEKLAAEFASKPWIQVDMQKEVIITGIQTQGAKHYLKSCYTTEFYVAYSSNQINWQIFKGNSTRNVMYFNGNSDASTIKENQFDPPIVARYIRISPTRAYNRPTLRLELQGCEVNGCSTPLGMENGKIENKQITASSFKKSWWGDYWEPFRARLNAQGRVNAWQAKANNNKQWLEIDLLKIKKITAIITQGCKSLSSEMYVKSYTIHYSEQGVEWKPYRLKSSMVDKIFEGNTNTKGHVKNFFNPPIISRFIRVIPKTWNQSIALRLELFGCDIY"}, "B5": {"name": "Factor Xa (Enzyme Research Laboratories) (protein)", "chain 1": "B3 chain 1", "chain 2": "B3 chain 2"}}, "key": {"[1]": {"target": "TFPI (source not stated; Examples 8, 12 and 45), P10646", "sequence (P10646 whole entry, looked up)": "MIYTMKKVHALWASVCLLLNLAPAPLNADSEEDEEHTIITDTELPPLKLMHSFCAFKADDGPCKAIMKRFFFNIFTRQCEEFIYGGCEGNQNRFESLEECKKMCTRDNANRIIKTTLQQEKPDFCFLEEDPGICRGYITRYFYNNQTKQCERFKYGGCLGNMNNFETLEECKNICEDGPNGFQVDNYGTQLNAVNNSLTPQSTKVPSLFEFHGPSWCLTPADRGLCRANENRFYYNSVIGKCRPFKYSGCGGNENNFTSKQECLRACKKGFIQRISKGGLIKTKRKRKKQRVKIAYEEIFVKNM"}, "[2]": {"target": "recombinant human TFPI purified from a cell line from Novo Nordisk"}}}
{"protein": "B1", "values": [{"measurement": "TF:FVIIa activity, hydrolysis of fluorogenic substrate SN-17c; 8 nM TFPI", "setting": "[1]", "value": "TFPI inhibited approximately 50% of TF:FVIIa activity under these conditions"}, {"measurement": "rate of FXa generation in the extrinsic tenase (Xase) assay (chromogenic FXa substrate, A405), normalised at 4 minutes; 1 nM TFPI", "setting": "[1]", "value": "TFPI reduced the rate of FXa generation at 4 minutes by nearly 70%"}]}
{"protein": "B2", "values": [{"measurement": "FXa generation by the extrinsic Xase (chromogenic FXa substrate); 2 nM TFPI", "setting": "[2]", "value": "curve #6 shows that TFPI shuts down Xa generation in the absence of ARC19499"}]}
{"protein": "B3", "values": [{"measurement": "FXa (1 nM) cleavage of chromogenic substrate S-2765, substrate added last", "setting": "[1]", "value": "In the presence of ≧8 nM TFPI, inhibition is nearly complete under these conditions and little product is formed"}]}
{"protein": "B4", "values": [{"measurement": "prothrombinase activity (thrombin generation from prothrombin, chromogenic thrombin substrate); 1 nM TFPI (fraction of activity)", "setting": "[2]", "value": 0.33}]}
{"protein": "B5", "values": [{"measurement": "FXa (0.2 nM) cleavage of chromogenic substrate Pefachrome FXa 5523; 2 nM TFPI", "setting": "[2]", "value": "When TFPI and the chromogenic substrate were added to FXa at the same time, the rate of substrate cleavage decreased gradually as FXa was inhibited by TFPI"}]}
